{"source": "paper PMC6050341", "about": "“Direct observation of DNA target searching and cleavage by CRISPR-Cas12a”", "key": {"AsCas12a WT [1]": {"target": "T1, AsCas12a WT (Acidaminococcus sp., UniProt U2UMQ6 1-1307)", "assay": "single-molecule FRET; 10 mM Mg2+; 20 nM RNP; transient S1 lifetime 0.13 +/- 0.01 s; stable stage II lifetime 94 s; smFRET: 10 mM Tris-HCl pH 8.0, 100 mM NaCl (100 mM KCl in Figs 4, 5), 10 mM MgCl2, 1 mM DTT, oxygen scavenger, 37 C; SpCas9 in NEB buffer 3"}, "AsCas12a WT [2]": {"target": "T1, AsCas12a WT", "assay": "single-particle tracking (TIRF); loose binding; drift rate rises with flow; smFRET: 10 mM Tris-HCl pH 8.0, 100 mM NaCl (100 mM KCl in Figs 4, 5), 10 mM MgCl2, 1 mM DTT, oxygen scavenger, 37 C; SpCas9 in NEB buffer 3"}, "AsCas12a WT [3]": {"target": "T1, AsCas12a WT", "assay": "single-molecule FRET; 5 nM AsCas12a, 10 nM crRNA; no stable binding, only short events; smFRET: 10 mM Tris-HCl pH 8.0, 100 mM NaCl (100 mM KCl in Figs 4, 5), 10 mM MgCl2, 1 mM DTT, oxygen scavenger, 37 C; SpCas9 in NEB buffer 3"}, "AsCas12a WT [4]": {"target": "T1, AsCas12a WT", "assay": "single-molecule FRET; 10 mM Mg2+; 10 nM protein, 20 nM crRNA; smFRET: 10 mM Tris-HCl pH 8.0, 100 mM NaCl (100 mM KCl in Figs 4, 5), 10 mM MgCl2, 1 mM DTT, oxygen scavenger, 37 C; SpCas9 in NEB buffer 3"}, "[5]": {"target": "T2, dAsCas12a (catalytically dead) (Acidaminococcus sp., UniProt U2UMQ6 1-1307, E993A)", "assay": "single-molecule FRET; 10 mM Mg2+; 100 mM KCl; no specific binding events (t < 30 ms); smFRET: 10 mM Tris-HCl pH 8.0, 100 mM NaCl (100 mM KCl in Figs 4, 5), 10 mM MgCl2, 1 mM DTT, oxygen scavenger, 37 C; SpCas9 in NEB buffer 3", "conditions": "protein: recombinant; tags: His tag implied (pET28b, Ni-NTA); label: crRNA 3' Cy5; DNA Cy3, 5' biotin; DNA 5' overhang 2 nt"}, "[6]": {"target": "T2, dAsCas12a (catalytically dead)", "assay": "single-molecule FRET; 10 mM Mg2+; stable binding reached; smFRET: 10 mM Tris-HCl pH 8.0, 100 mM NaCl (100 mM KCl in Figs 4, 5), 10 mM MgCl2, 1 mM DTT, oxygen scavenger, 37 C; SpCas9 in NEB buffer 3", "conditions": "protein: recombinant; tags: His tag implied (pET28b, Ni-NTA); label: crRNA 3' Cy5; DNA Cy3, 5' biotin; DNA 5' overhang 2 nt"}, "AsCas12a WT [7]": {"target": "T1, AsCas12a WT", "assay": "single-particle tracking (TIRF); 1D diffusion, then stable stall at target about 50 s; smFRET: 10 mM Tris-HCl pH 8.0, 100 mM NaCl (100 mM KCl in Figs 4, 5), 10 mM MgCl2, 1 mM DTT, oxygen scavenger, 37 C; SpCas9 in NEB buffer 3"}}}
{"binder": "DNMT1 crRNA + target DNA WT (Fig 2) (mixed, internal amino-dT for dye) RNA: AAUUUCUACUCUUGUAGAUCUGAUGGUCCAUGUCUGUUACUC DNA 1: TTTTTTCACTTGACAGGCGAGTAACAGACATGGACCATCAGGAAACATTAACGTACT DNA 2: AGTACGTTAATGTTTCCTGATGGTCCATGTCTGTTACTCGCCTGTCAAGTG", "values": [{"measurement": "binding result", "setting": "AsCas12a WT [1]", "result": "binds"}]}
{"binder": "AAUUUCUACUCUUGUAGAUCUGAUGGUCCAUGUCUGUUACUC (mixed)", "note": "[DNMT1 crRNA + lambda DNA]", "values": [{"measurement": "binding result", "setting": "AsCas12a WT [2]", "result": "binds"}]}
{"binder": "DNMT1 crRNA + target w/o PAM (mixed) RNA: AAUUUCUACUCUUGUAGAUCUGAUGGUCCAUGUCUGUUACUC DNA 1: TTCACTTGACAGGCGAGTAACAGACATGGACCATCAGGAAGCATAAGCGTACT DNA 2: AGTACGCTTATGCTTCCTGATGGTCCATGTCTGTTACTCGCCTGTCAAGTG", "values": [{"measurement": "binding result", "setting": "AsCas12a WT [3]", "result": "no binding"}]}
{"binder": "DNMT1 crRNA + target WT (Fig 5) (mixed) RNA: AAUUUCUACUCUUGUAGAUCUGAUGGUCCAUGUCUGUUACUC DNA 1: GGATCTCTTAAGTCGTTGAGTAACAGACATGGACCATCAGGAAACACAGTGCAGTATTAGCACTTTTT DNA 2: GTGCTAATACTGCACTGTGTTTCCTGATGGTCCATGTCTGTTACTCAACGACTTAAGAGATCC", "values": [{"measurement": "binding result", "setting": "AsCas12a WT [4]", "result": "binds"}]}
{"binder": "DNMT1 crRNA + 0 match DNA (mixed) RNA: AAUUUCUACUCUUGUAGAUCUGAUGGUCCAUGUCUGUUACUC DNA 1: TTCACTTGACAGGCACTCGTCTCAACGCACACTGATAGAAACATACACGTACT DNA 2: AGTACGTGTATGTTTCTATCAGTGTGCGTTGAGACGAGTGCCTGTCAAGTG", "values": [{"measurement": "binding result", "setting": "[5]", "result": "no binding"}]}
{"binder": "DNMT1 crRNA + 17 match DNA (mixed) RNA: AAUUUCUACUCUUGUAGAUCUGAUGGUCCAUGUCUGUUACUC DNA 1: TTCACTTGACAGGCACTCGTCAGACATGGACCATCAGGAAACATTAACGTACT DNA 2: AGTACGTTAATGTTTCCTGATGGTCCATGTCTGACGAGTGCCTGTCAAGTG", "values": [{"measurement": "binding result", "setting": "[6]", "result": "binds"}]}
{"binder": "AAUUUCUACUCUUGUAGAUACGGUCGAGCGUCAGCGUCCGGG (mixed)", "note": "[80% crRNA + 21 kb DNA]", "values": [{"measurement": "binding result", "setting": "AsCas12a WT [7]", "result": "binds"}]}
